In US20140154255A1 (AbbVie / Abbott, published 2014):
Substitutions are numbered along the chain they refer to.

B1: 85 (antibody, human IgG1, V domains shown)
VH: EVQLVESGGGLVQPGGSLRLSCAASGYTFTFYGMNWVRQAPGKGLEWVGWINTYTGEPTYAADFKRRFTFSLDTSKSTAYLQMNSLRAEDTAVYYCAKYPEYEGSSHWYFDVWGQGTLVTVSS
VL: DIQMTQSPSSLSASVGDRVTITCSASQDISNYLNWYQQKPGKAPKVLIYFTSSLHSGVPSRFSGSGSGTDFTLTISSLQPEDFATYYCQQYSTVPWTFGQGTKVEIKR
B2: 86 (seventh row of Table 7) (antibody, human IgG1, V domains shown)
VH: B1 VH with E101H, E103D, S105G
VL: DIQMTQSPSSLSASVGDRVTITCSASQDISNYLNWYQQKPGKAPKVLIYFTSSLHSGVPSRFSGSGSGTDFTLTISSLQPEDFATYYCQQYSTVPWTFGQGTKVEIK
notes: defined here by its substitutions; copies: 2 + 2
B3: 94 (antibody, human IgG1, V domains shown)
VH: B1 VH with E101H, E103Y, S105G
VL: B1 VL
B4: 96 (antibody, human IgG1, V domains shown)
VH: B1 VH with E101P, E103Y, S105G
VL: B1 VL
B5: 87 (antibody, human IgG1, V domains shown)
VH: B1 VH with E103D, S105G
VL: B1 VL
B6: 89 (antibody, human IgG1, V domains shown)
VH: B1 VH with E101P, E103D
VL: B1 VL
B7: 90 (antibody, human IgG1, V domains shown)
VH: B1 VH with E101D, E103Y
VL: B1 VL
B8: 86 (antibody, human IgG1, V domains shown)
VH: B1 VH with E101D
VL: B1 VL

biological target: T1, VEGF (R&D systems, Minneapolis, Minn.) (UniProt P15692-4 27-191, limits assumed); experiment: BIAcore SPR
T1 sequence (P15692 other isoform, or with tags, fused parts or gaps limits assumed): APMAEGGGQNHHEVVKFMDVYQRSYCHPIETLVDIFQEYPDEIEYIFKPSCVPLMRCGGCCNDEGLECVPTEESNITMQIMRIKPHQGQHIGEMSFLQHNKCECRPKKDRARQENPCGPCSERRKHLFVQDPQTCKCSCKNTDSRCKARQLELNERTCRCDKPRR
Description: (§1) RL was kept low to minimize avidity due to the dimeric nature of VEGF. No capture of the antibody was made on the reference surface to serve as a negative control. Subsequently, VEGF was injected to all flow cells at a flow rate of 50 μL/min for two minutes to monitor association followed by a 25-minute flow of HBS-P running buffer (10 mM HEPES, 150 mM sodium chloride, 0.005% P-20, pH 7.4) to monitor the dissociation phase. At each cycle, VEGF, in 6 different concentrations of VEGF ranging between 0 nM and 512 nM and at four-fold increments, was injected over the surface. […] Binding data were fit to the 1:1 Langmuir model to extract binding constants from the BIAevaluate software. Double referencing was applied in each analysis to eliminate background responses from the reference surface and buffer only control. All the binding kinetics data were analyzed at least three separate determinations.

| Kd | koff | kon | Binder |
| --- | --- | --- | --- |
| 0.14 nM | 0.000175 s⁻¹ | 1.25e+06 M⁻¹ s⁻¹ | B1 |
| 0.282 nM | 0.000273 s⁻¹ | 968000 M⁻¹ s⁻¹ | B2 |
| 0.857 nM | 0.00022 s⁻¹ | 258000 M⁻¹ s⁻¹ | B3 |
| 1.75 nM | 0.000379 s⁻¹ | 225000 M⁻¹ s⁻¹ | B4 |
| 0.204 nM | 0.00016 s⁻¹ | 824000 M⁻¹ s⁻¹ | B5 |
| 0.282 nM | 0.000249 s⁻¹ | 904000 M⁻¹ s⁻¹ | B6 |
| 0.311 nM | 0.000197 s⁻¹ | 645000 M⁻¹ s⁻¹ | B7 |
| 0.179 nM | 0.000238 s⁻¹ | 1.33e+06 M⁻¹ s⁻¹ | B8 |

biological target: T1, VEGF (R&D systems, Minneapolis, Minn.); experiment: BIAcore SPR, WT/mutant
Description: as §1

| Δkoff | Binder |
| --- | --- |
| 2 fold | B1 |
| 1.3 fold | B2 |
| 1.6 fold | B3 |
| 0.9 fold | B4 |
| 2.2 fold | B5 |
| 1.4 fold | B6 |
| 1.8 fold | B7 |
| 1.5 fold | B8 |

biological target: T1, VEGF (R&D systems, Minneapolis, Minn.); experiment: BIAcore SPR, mutant/WT
Description: as §1

| Δkon | Binder |
| --- | --- |
| 6.9 fold | B1 |
| 5.4 fold | B2 |
| 1.4 fold | B3 |
| 1.3 fold | B4 |
| 4.6 fold | B5 |
| 5 fold | B6 |
| 3.6 fold | B7 |
| 7.4 fold | B8 |

biological target: T1, VEGF (R&D systems, Minneapolis, Minn.); experiment: BIAcore SPR, improvement over WT
Description: as §1

| ΔKD | Binder |
| --- | --- |
| 14.1 fold | B1 |
| 7 fold | B2 |
| 2.3 fold | B3 |
| 1.1 fold | B4 |
| 9.6 fold | B5 |
| 7 fold | B6 |
| 6.3 fold | B7 |
| 11 fold | B8 |
